Results published in patent US20230151079A1 (FUNDA O BUTANTAN, published 2023).

Tests used:
thrombin [1] = molecular target: T1, thrombin (Homo sapiens (Human), UniProt P00734 315-363; P00734 364-622); test: calculated from kon and koff (equation 7)
thrombin [2] = molecular target: T1, thrombin; test: enzyme kinetics, S-2238 hydrolysis by thrombin; nonlinear regression for competing enzyme inhibition
thrombin [3] = molecular target: T1, thrombin; test: progress curves of S-2238 hydrolysis by thrombin; kobs plotted against recombinant protein concentration
thrombin [4] = molecular target: T1, thrombin; test: enzyme kinetics, S-2238 hydrolysis by thrombin; Morrison tight binding equation
thrombin [5] = molecular target: T1, thrombin; test: enzyme kinetics, S-2238 hydrolysis by thrombin 0.1 nM; apparent Km from Lineweaver-Burk plots against inhibitor concentration; competing inhibition
thrombin [6] = molecular target: T1, thrombin; test: cell-based or functional assay

B1: Recombinant protein (SEQ ID NO: 1), modified from sculptin of the tick Amblyomma cajennense (other)
chain: GKPQGHPHDALEARSDAVHTAVPKMPKGGHGGFEPIPIDYDERALEARSDAVHTAVPKMPKGGLGGFEPIPIDYDERALEARSDAVHTAVPKMPKGGHGGFEPIPIDYDERALEARSDAVHTAVPKMPKGGHGGFEPIPIDYDERALHALEHHHHHH
notes: Expressed in E. coli BL21(DE3) from pET28a, without signal peptide and with a C-terminal polyhistidine tail; Mass 16990.90 Da by MALDI-TOF; also called Scpt; preserved recombinant protein
Ki (thrombin [1]): 0.0161 nM
Ki (thrombin [2]): 0.0181 nM
koff (thrombin [3]): 0.00065 s⁻¹
kon (thrombin [3]): 4.04e+07 M⁻¹ s⁻¹
Ki (thrombin [4]): 0.0195 nM
Ki (thrombin [5]): 0.0185 nM
IC50 of thrombin inhibition (hydrolysis of S-2238 by thrombin 0.1 nM) (thrombin [6]): 0.0866 nM

B2: Recombinant protein fragment of HPLC peak H1 generated by factor Xa (SEQ ID NO: 10) (peptide)
peptide: GKPQGHPHDALEARSDAVHTAVPKMPKGGHGGFEPIPIDYDERALEAR
thrombin inhibition activity retained, relative to non-hydrolyzed recombinant protein (S-2238 hydrolysis, thrombin 0.1 nM, fragment 100 pM) (thrombin [6]): ~50 % of preserved recombinant protein
